In patent US20140087995A1 (published 2014):
Numbered stars: 1 amine (or outer) side, 2 acyl side, 3 side chain; on linkers, the order of the positions; unused ones are H or OH. Bridge positions count the residues as written; N and C are the ends. Side chains are listed from the residue outwards. Ends that are not written are not given here. * marks the point of attachment. C20 diacid = O=C(O)CCCCCCCCCCCCCCCCCCC(=O)*; γGlu = O=C(O)[C@H](CCC(=O)[*:2])N[*:1]; AEEA = NCCOCCOCC(=O)O

T1: human calcitonin receptor (human, UniProt P30988 25-474)
T1 construct: whole, on cells; Membranes of a BHK tk'ts 13 cell line stably transfected with the human calcitonin receptor; also called hCTR; hCT
T1 sequence (looked up): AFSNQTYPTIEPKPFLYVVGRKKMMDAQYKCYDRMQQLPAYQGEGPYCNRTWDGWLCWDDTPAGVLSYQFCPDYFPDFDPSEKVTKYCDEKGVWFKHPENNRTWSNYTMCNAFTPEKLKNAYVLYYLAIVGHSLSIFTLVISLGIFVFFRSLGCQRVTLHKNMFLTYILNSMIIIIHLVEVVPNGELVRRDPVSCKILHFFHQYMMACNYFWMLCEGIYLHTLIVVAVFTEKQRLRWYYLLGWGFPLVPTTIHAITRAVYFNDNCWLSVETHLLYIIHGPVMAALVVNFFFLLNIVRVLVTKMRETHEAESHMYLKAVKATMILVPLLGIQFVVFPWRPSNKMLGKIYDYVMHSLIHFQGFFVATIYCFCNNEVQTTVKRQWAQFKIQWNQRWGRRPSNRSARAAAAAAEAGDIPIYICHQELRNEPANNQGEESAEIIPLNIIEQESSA

T2: rat calcitonin receptor (rat, UniProt P32214 25-516)
T2 construct: whole, on cells; Membranes of BHK tk'ts 13 cells transiently transfected with the rat calcitonin receptor; also called rCTR; rat calcitonin (a) receptor
T2 sequence (looked up): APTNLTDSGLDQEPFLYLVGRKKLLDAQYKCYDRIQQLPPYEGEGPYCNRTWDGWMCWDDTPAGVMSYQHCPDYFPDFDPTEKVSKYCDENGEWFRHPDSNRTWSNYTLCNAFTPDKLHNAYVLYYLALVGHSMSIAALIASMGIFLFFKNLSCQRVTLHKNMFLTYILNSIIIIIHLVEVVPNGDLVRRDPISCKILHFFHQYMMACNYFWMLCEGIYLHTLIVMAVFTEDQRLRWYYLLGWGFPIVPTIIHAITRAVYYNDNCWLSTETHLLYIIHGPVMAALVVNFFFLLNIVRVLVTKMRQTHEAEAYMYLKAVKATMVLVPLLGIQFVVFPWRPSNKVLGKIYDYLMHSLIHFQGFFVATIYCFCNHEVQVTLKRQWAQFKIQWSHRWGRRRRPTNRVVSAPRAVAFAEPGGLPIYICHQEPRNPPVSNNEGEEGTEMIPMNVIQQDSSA

T3: rat amylin receptor (rat calcitonin receptor + rat RAMP 3) (rat, UniProt P32214 25-516; Q9JJ73 23-147)
T3 construct: whole, on cells; Membranes of BHK tk'ts 13 cells transiently transfected with the rat calcitonin receptor and rat RAMP 3; also called rAmylin-R; rat amylin 3(a) receptor
T3 sequence (looked up) 1: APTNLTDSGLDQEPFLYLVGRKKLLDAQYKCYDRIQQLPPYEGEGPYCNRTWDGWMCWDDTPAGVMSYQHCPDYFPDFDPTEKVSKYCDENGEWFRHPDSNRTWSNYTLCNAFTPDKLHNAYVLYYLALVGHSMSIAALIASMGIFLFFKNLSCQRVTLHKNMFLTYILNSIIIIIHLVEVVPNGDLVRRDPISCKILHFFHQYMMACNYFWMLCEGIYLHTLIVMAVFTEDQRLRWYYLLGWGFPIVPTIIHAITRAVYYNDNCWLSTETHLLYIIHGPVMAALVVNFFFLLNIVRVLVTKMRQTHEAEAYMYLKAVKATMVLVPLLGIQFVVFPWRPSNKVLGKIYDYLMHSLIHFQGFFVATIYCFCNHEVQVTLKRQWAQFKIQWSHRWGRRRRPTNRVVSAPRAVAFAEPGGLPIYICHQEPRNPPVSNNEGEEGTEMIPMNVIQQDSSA
T3 sequence (looked up) 2: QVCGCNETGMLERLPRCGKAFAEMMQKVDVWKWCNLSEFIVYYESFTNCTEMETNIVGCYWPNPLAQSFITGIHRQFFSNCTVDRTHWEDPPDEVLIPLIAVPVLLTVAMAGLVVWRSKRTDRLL


Tests used:
[1] = target: T1, human calcitonin receptor; assay: IC50 at hCTR divided by IC50 at hAmylin-R (reference)
Protocol: The resulting pellet was resuspended, homogenized and centrifuged (20.000 rpm, 15 min) in a buffer containing 20 mM Na-HEPES and 0.1 mM EDTA (pH 7.4, buffer 2). The resulting pellet was resuspended in buffer 2 and protein concentration was measured (BCA protein Assay, Pierce). The homogenate was kept cold during the whole procedure. The membranes were kept at −80° C. until use. The assay was performed in a 384 well Optiplate (PerkinElmer) in a total volume of 40 ul. Membranes were mixed with SPA beads. Final concentration of membranes 35 ng/μL final and SPA beads was 0.05 mg/well. Test-compounds were dissolved in DMSO and further diluted in assay buffer (50 mM Hepes, pH 7.4, 1 mM CaCl2, 5 mM MgCl₂, 0.1% OA and 0.02% Tween20). […] The final mixture was incubated with shaking at 400 rpm for 120 min at 25° C. prior to centrifugation (1500 rpm, 10 min). Samples were analyzed on TopCounter™ (Packard). The IC₅₀ was calculated using (one site binding competition analysis) GraphPad Prism5 as a measure of receptor affinity.
Membranes were prepared in the following way; the cells were rinsed with PBS and incubated with Versene for approximately 5 min before harvesting. The cells were flushed with PBS and the cell-suspension was centrifuged for 5 min at 1000 rpm. Cells were homogenized (Ultrathurrax) in a buffer containing 20 mM Na-HEPES and 10 mM EDTA (pH 7.4) and centrifuged at 20.000 rpm for 15 min. The resulting pellet was resuspended, homogenized and centrifuged (20.000 rpm, 15 min) in a buffer containing 20 mM Na-HEPES and 0.1 mM EDTA (pH 7.4, buffer 2). The resulting pellet was resuspended in buffer 2 and protein concentration was measured (BCA protein Assay, Pierce). The homogenate was kept cold during the whole procedure. The membranes were kept at −80° C. until use. Assay was performed in a 384 well Optiplate (PerkinElmer) in a total volume of 40 ul. Membranes were mixed with SPA beads.

[2] = target: T2, rat calcitonin receptor; assay: SPA competition vs 125I-calcitonin, membranes with rat CTR (Assay VIII)
[3] = target: T3, rat amylin receptor (rat calcitonin …); assay: SPA competition vs 125I-rat amylin, membranes with rat CTR + rat RAMP3 (Assay VI)
Protocol: The binding assay was performed using scintillation proximity assay (SPA) beads (RPNQ0001) from PerkinElmer and cell membranes from the Amylin 3(a)/CRE-luc cells (as described in Assay (II)) were used. Membranes were prepared in the following way; the cells were rinsed with PBS and incubated with Versene for approximately 5 min before harvesting. The cells were flushed with PBS and the cell-suspension was centrifuged for 5 min at 1000 rpm. Cells were homogenized (ultrathurrax) in a buffer containing 20 mM Na-HEPES and 10 mM EDTA (pH 7.4) and centrifuged at 20.000 rpm for 15 min. The resulting pellet was resuspended, homogenized and centrifuged (20.000 rpm, 15 min) in a buffer containing 20 mM Na-HEPES and 0.1 mM EDTA (pH 7.4, buffer 2). The resulting pellet was resuspended in buffer 2 and protein concentration was measured (BCA protein Assay, Pierce). The homogenate was kept cold during the whole procedure. The membranes were kept at −80° C. until use. The assay was performed in a 384 well Optiplate (PerkinElmer) in a total volume of 40 ul. Membranes were mixed with SPA beads. Final concentration of membranes 35 ng/μL final and SPA beads was 0.05 mg/well. Test-compounds were dissolved in DMSO and further diluted in assay buffer (50 mM Hepes, pH 7.4, 1 mM CaCl2, 5 mM MgCl₂, 0.1% OA and 0.02% Tween20). […] The final mixture was incubated with shaking at 400 rpm for 120 min at 25° C. prior to centrifugation (1500 rpm, 10 min). Samples were analyzed on TopCounter™ (Packard). The IC₅₀ was calculated using (one site binding competition analysis) GraphPad Prism5 as a measure of receptor affinity.
Cells were grown in DMEM with 10% FBS and 1% Pen/Strep. Approximately 48 hours after transfection, the cells were harvested and membranes were prepared.

Binder	Ratio hCT/hAmylin binding [1]	IC50 [2]	IC50 [3]
{C20 diacid-γGlu-γGlu}-KCNTATCATQRLAEFLRHSSPNFGAIPSSTNVGSNTY-NH2 (disulfide 2-7; SMILES CC[C@H](C)[C@H](NC(=O)[C@H](C)NC(=O)CNC(=O)[C@H](Cc1ccccc1)NC(=O)[C@H](CC(N)=O)NC(=O)[C@@H]1CCCN1C(=O)[C@H](CO)NC(=O)[C@H](CO)NC(=O)[C@H](Cc1c[nH]cn1)NC(=O)[C@H](CCCNC(=N)N)NC(=O)[C@H](CC(C)C)NC(=O)[C@H](Cc1ccccc1)NC(=O)[C@H](CCC(=O)O)NC(=O)[C@H](C)NC(=O)[C@H](CC(C)C)NC(=O)[C@H](CCCNC(=N)N)NC(=O)[C@H](CCC(N)=O)NC(=O)[C@@H](NC(=O)[C@H](C)NC(=O)[C@@H]1CSSC[C@H](NC(=O)[C@H](CCCCN)NC(=O)CC[C@H](NC(=O)CC[C@H](NC(=O)CCCCCCCCCCCCCCCCCCC(=O)O)C(=O)O)C(=O)O)C(=O)N[C@@H](CC(N)=O)C(=O)N[C@@H]([C@@H](C)O)C(=O)N[C@@H](C)C(=O)N[C@@H]([C@@H](C)O)C(=O)N1)[C@@H](C)O)C(=O)N1CCC[C@H]1C(=O)N[C@@H](CO)C(=O)N[C@@H](CO)C(=O)N[C@H](C(=O)N[C@@H](CC(N)=O)C(=O)N[C@H](C(=O)NCC(=O)N[C@@H](CO)C(=O)N[C@@H](CC(N)=O)C(=O)N[C@H](C(=O)N[C@@H](Cc1ccc(O)cc1)C(N)=O)[C@@H](C)O)C(C)C)[C@@H](C)O, modifications are with respect to human amylin; also called compound 15)	26		
K([AEEA-γGlu-C20 diacid])CNTATCATQRLANFLRHSSPNFGAIPSSTNVGSRTY-NH2 (disulfide 2-7; N-terminus assumed; SMILES CC[C@H](C)[C@H](NC(=O)[C@H](C)NC(=O)CNC(=O)[C@H](Cc1ccccc1)NC(=O)[C@H](CC(N)=O)NC(=O)[C@@H]1CCCN1C(=O)[C@H](CO)NC(=O)[C@H](CO)NC(=O)[C@H](Cc1c[nH]cn1)NC(=O)[C@H](CCCNC(=N)N)NC(=O)[C@H](CC(C)C)NC(=O)[C@H](Cc1ccccc1)NC(=O)[C@H](CC(N)=O)NC(=O)[C@H](C)NC(=O)[C@H](CC(C)C)NC(=O)[C@H](CCCNC(=N)N)NC(=O)[C@H](CCC(N)=O)NC(=O)[C@@H](NC(=O)[C@H](C)NC(=O)[C@@H]1CSSC[C@H](NC(=O)[C@@H](N)CCCCNC(=O)COCCOCCNC(=O)CC[C@H](NC(=O)CCCCCCCCCCCCCCCCCCC(=O)O)C(=O)O)C(=O)N[C@@H](CC(N)=O)C(=O)N[C@@H]([C@@H](C)O)C(=O)N[C@@H](C)C(=O)N[C@@H]([C@@H](C)O)C(=O)N1)[C@@H](C)O)C(=O)N1CCC[C@H]1C(=O)N[C@@H](CO)C(=O)N[C@@H](CO)C(=O)N[C@H](C(=O)N[C@@H](CC(N)=O)C(=O)N[C@H](C(=O)NCC(=O)N[C@@H](CO)C(=O)N[C@@H](CCCNC(=N)N)C(=O)N[C@H](C(=O)N[C@@H](Cc1ccc(O)cc1)C(N)=O)[C@@H](C)O)C(C)C)[C@@H](C)O, modifications are with respect to human amylin; also called compound 38)		38 nM	0.383 nM
